According to article PMC12362409:

Columns and labels:
TRAF3 = TRAF3 (UniProt Q13114); experiment: anti-Myc co-IP, Flag immunoblot; conditions: reference: wild type mMAVS; sites S186,S220
TRAF2 = TRAF2 (UniProt Q12933); experiment: anti-Myc co-IP, Flag immunoblot; conditions: reference: wild type mMAVS; sites S186,S220

“mouse MAVS (mMAVS) (from UniProt Q8VCF0) S186A/S220A (2SA)” was tested, and the “binding against the reference” value (TRAF3) was “weaker” and the “binding against the reference” value (TRAF2) was “weaker”.
